Assay results published in US20160047821.

Columns and labels:
[1] = target: T1, GST-RelB deletion mutant Δ5 (amino acids 499-580)
T1 chain: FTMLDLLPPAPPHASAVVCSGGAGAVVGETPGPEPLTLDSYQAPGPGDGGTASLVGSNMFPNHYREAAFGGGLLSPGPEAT

[2] = target: T2, GST-RelB deletion mutant Δ3 (amino acids 372-448)
T2 chain: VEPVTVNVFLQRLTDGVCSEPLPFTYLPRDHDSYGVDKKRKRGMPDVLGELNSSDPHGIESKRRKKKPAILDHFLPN

[3] = target: T3, GST-RelB Δ4 point mutant S468A
T3 chain: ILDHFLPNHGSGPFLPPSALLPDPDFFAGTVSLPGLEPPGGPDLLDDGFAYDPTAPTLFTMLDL

[4] = target: T4, GST-RelB deletion mutant Δ4 (amino acids 441-504)
T4 chain: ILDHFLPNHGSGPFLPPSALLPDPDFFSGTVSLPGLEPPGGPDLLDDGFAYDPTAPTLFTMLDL

[5] = target: T5, GST-RelB Δ4 point mutant S458A
T5 chain: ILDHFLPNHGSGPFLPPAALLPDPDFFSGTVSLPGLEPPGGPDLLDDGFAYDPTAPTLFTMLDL

[6] = target: T6, GST-RelB deletion mutant Δ2 (amino acids 316-377)
T6 chain: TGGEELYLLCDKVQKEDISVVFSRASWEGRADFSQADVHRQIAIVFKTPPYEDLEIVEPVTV

[7] = target: T7, GST-RelB Δ4 point mutant S472A
T7 chain: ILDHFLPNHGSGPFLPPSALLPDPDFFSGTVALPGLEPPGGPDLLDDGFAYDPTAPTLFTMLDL

[8] = target: T8, GST-RelB deletion mutant Δ1 (amino acids 274-321)
T8 chain: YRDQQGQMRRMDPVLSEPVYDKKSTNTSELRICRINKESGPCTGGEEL

[9] = target: T9, GST-RelB Δ4 point mutant S451A
T9 chain: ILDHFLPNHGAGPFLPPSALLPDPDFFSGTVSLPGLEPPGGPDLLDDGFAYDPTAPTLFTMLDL

B1: IκB kinase (IKK) complex (endogenous, WT MEFs) (protein)
chain 1: MERPPGLRPGAGGPWEMRERLGTGGFGNVSLYQHRELDLKIAIKSCRLELSSKNRERWCHEIQIMKKLDHANVVKACDVPEELNFLINDVPLLAMEYCSGGDLRKLLNKPENCCGLKESQILSLLSDIGSGIRYLHENKIIHRDLKPENIVLQDVGGKTIHKIIDLGYAKDVDQGSLCTSFVGTLQYLAPELFENKPYTATVDYWSFGTMVFECIAGYRPFLHHLQPFTWHEKIKKKDPKCIFACEEMTGEVRFSSHLPQPNSLCSLIVEPMESWLQLMLNWDPQQRGGPIDLTLKQPRCFALMDHILNLKIVHILNMTSAKIISFLLPCDESLHSLQSRIERETGINTGSQELLSETGISLDPRKPASQCVLDGVRGCDSYMVYLFDKSKTVYEGPFASRSLSDCVNYIVQDSKIQLPIIQLRKVWAEAVHYVSGLKEDYSRLFQGQRAAMLSLLRYNANLTKMKNTLISASQQLKAKLEFFRKSIQLDLERYSEQMTYGISSEKMLKAWKEMEEKAIHYSEVGVIGYLEDQIMSLHTEIMELQKSPYGRRQGDLMESLEQRAIDLYKQLKHRPPDHLYSDSTEMVKIIVHTVQSQDRVLKELFGHLSKLLGCKQKIIDLLPKVEVALSNIKEADNTVMFMQGKRQKEIWHLLKIACTQSSARSLVGSSLEGTVTPPVSAWLPPTLADREHPLTCVVTPQDGETLAQMIEENLNCLGHLSTIIREANEDQSSSLMSLDWSWLAE
chain 2: MSWSPSLPTQTCGAWEMKERLGTGGFGNVIRWHNQATGEQIAIKQCRQELSPKNRNRWCLEIQIMRRLNHPNVVAARDVPEGMQNLAPNDLPLLAMEYCQGGDLRRYLNQFENCCGLREGAVLTLLSDIASALRYLHENRIIHRDLKPENIVLQQGEKRLIHKIIDLGYAKELDQGSLCTSFVGTLQYLAPELLEQQKYTVTVDYWSFGTLAFECITGFRPFLPNWQPVQWHSKVRQKSEVDIVVSEDLNGAVKFSSSLPFPNNLNSVLAERLEKWLQLMLMWHPRQRGTDPQYGPNGCFRALDDILNLKLVHVLNMVTGTVHTYPVTEDESLQSLKTRIQENTGILETDQELLQKAGLVLLPDKPATQCISDSKTNEGLTLDMDLVFLLDNSKINYETQITPRPPPESVSCILQEPKRNLSFFQLRKVWGQVWHSIQTLKEDCNRLQQGQRAAMMSLLRNNSCLSKMKNAMASTAQQLKAKLDFFKTSIQIDLEKYKEQTEFGITSDKLLLAWREMEQAVEQCGRENDVKHLVERMMALQTDIVDLQRSPMGRKQGGTLDDLEEQARELYRKLREKPRDQRTEGDSQEMVRLLLQAIQSFEKKVRVIYTQLSKTVVCKQKALELLPKVEEVVSLMNEDERTVVRLQEKRQKELWNLLKIACSKVRGPVSGSPDSMNVSRLSHPGQLMSQPSSACDSLPESDKKSEELVAEAHALCSRLESALQDTVKEQDRSFTTLDWSWLQMEDEERCSLEQACD
chain 3: MNKHPWKNQLSEMVQPSGGPAEDQDMLGEESSLGKPAMLHLPSEQGTPETLQRCLEENQELRDAIRQSNQMLRERCEELLHFQVSQREEKEFLMCKFQEARKLVERLSLEKLDLRSQREQALKELEQLKKCQQQMAEDKASVKAQVTSLLGELQESQSRLEAATKDRQALEGRIRAVSEQVRQLESEREVLQQQHSVQVDQLRMQNQSVEAALRMERQAASEEKRKLAQLQAAYHQLFQDYDSHIKSSKGMQLEDLRQQLQQAEEALVAKQELIDKLKEEAEQHKIVMETVPVLKAQADIYKADFQAERHAREKLVEKKEYLQEQLEQLQREFNKLKVGCHESARIEDMRKRHVETPQPPLLPAPAHHSFHLALSNQRRSPPEEPPDFCCPKCQYQAPDMDTLQIHVMECIE
Question: B1 was tested. Which “IKKγ kinase assays (phosphorylation of the GST-RelB substrate, 32P autoradiography)” value (shortened to “IKKγ kinase assays”) [1] did it give?
Answer: Only mutant Δ4 was efficiently phosphorylated by IKKγ

Question: And the “IKKγ kinase assays” value [2]?
Answer: Only mutant Δ4 was efficiently phosphorylated by IKKγ

Question: And the “in vitro kinase assays (phosphorylation of GST-RelB Δ4 point mutants)” value [3]?
Answer: only a point mutation at serine 472 abolished phosphorylation of the Δ4 RelB deletion mutant

Question: What about the “IKKγ kinase assays” value [4] of the same protein?
Answer: Only mutant Δ4 was efficiently phosphorylated by IKKγ

Question: What about the “in vitro kinase assays (phosphorylation of GST-RelB Δ4 point mutants)” value [5] of the same protein?
Answer: only a point mutation at serine 472 abolished phosphorylation of the Δ4 RelB deletion mutant

Question: What about the “IKKγ kinase assays” value [6] of the same protein?
Answer: Only mutant Δ4 was efficiently phosphorylated by IKKγ

Question: What about the “in vitro kinase assays (phosphorylation of GST-RelB Δ4 point mutants)” value [7] of the same protein?
Answer: only a point mutation at serine 472 abolished phosphorylation of the Δ4 RelB deletion mutant

Question: And the “IKKγ kinase assays” value [8]?
Answer: Only mutant Δ4 was efficiently phosphorylated by IKKγ

Question: And the “in vitro kinase assays (phosphorylation of GST-RelB Δ4 point mutants)” value [9]?
Answer: only a point mutation at serine 472 abolished phosphorylation of the Δ4 RelB deletion mutant
